# Assay results taken from US20240228986A1, “ENGINEERED CELLS, ENZYMES, AND METHODS FOR PRODUCING CANNABINOIDS” (priority 2021, published 2024).
# How the values were obtained:
# [1] = tested on: hexanoic acid; experiment: GPS-PKC-MPT fusions, hexanoic acid feed in vivo assay (Example 13); format: cell-based, Yarrowia; conditions: hexanoic acid 2.5 mM plus 5 mM after 24 h, 48 h quench; strain SB-00311 + pCL-SE-0274; average of 44 or 34 transformants
# Procedure: Strain SB-00311 (HCS2, PKS1.1 and PKC1.1) was co-transformed with 1) a construct (pCL-SE-0274) for expression of HMGR and GPS1.1 and 2) a construct (pCL-SE-0406) for expression of a fusion protein that contains, from N- to C-terminus, GPS1.1 and MPT4 linked using the F11 linker sequence or a construct (pCL-SE-0474) for expression of a fusion protein that contains, from N- to C-terminus, GPS1.1, PKC1.1 and MPT4, each linked using the F11 linker sequence.
# Transformants were assessed for CBGA production from hexanoic acid. Assay cultures consisted of YNBD+CAA media with 2.5 mM hexanoic acid. After 24 h, an additional 5 mM hexanoic acid was added to each assay culture. Cultures were quenched after 48 h total growth.
# Overnight YPD (10 g/L yeast extract, 20 g/L peptone, 2% dextrose) cultures were inoculated from glycerol stocks of the appropriate strain and grown at 30° C. with 250 rpm shaking. Once cultures had reached an OD600 of 4-6, cultures were centrifuged at 500×g for 5 min, supernatants were discarded, and cell pellets were resuspended in equal volume of water. Resuspended cells were centrifuged at 500×g for 5 min, supernatants were discarded, and cells were resuspended in a volume (75 μL×OD×Vculture) of transformation cocktail (45% PEG-400, 0.1 M LiAc, 0.1 M DTT, and 25 ug/100 μL SS Salmon Sperm DNA). For each transformation, >1 μg of plasmid DNA was added to 55 μL cells/transformation cocktail and vortexed for 2 s. Transformations were incubated at 39° C. for 1 h with 250 rpm shaking. Transformations were resuspended in 750 μL YPD with 1 M sorbitol and recovered at 30° C. overnight with 250 rpm shaking. […] Precipitates were pelleted by centrifuging at 4600×g for 10 min and then 200 μL was transferred to fresh plates, sealed, and analyzed via HPLC.
# All samples were quenched with equal volume of EtOH containing 0.2 mg/mL internal standard (3,5-Diisopropyl-2-hydroxybenzoic acid CAS #2215-21-6) centrifuged, and clarified solutions were analyzed by HPLC-MS […]
# [2] = tested on: olivetolic acid; experiment: MPT fusions with GPS1.1 vs unfused MPTs, OA feed (Example 8, Table 9); format: cell-based, Yarrowia; conditions: 2 mM olivetolic acid, 48 h quench
# Summary of the method: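 Yeast strain sCL-SE-0128 carrying MPT or GPS1.1–MPT fusion plasmids, precultured 48 h in YNB/2% glucose/0.5% casamino acids/100 mM MES pH 6.5. Assay medium was the same plus 2 mM olivetolic acid, 30 °C. Cultures were ethanol-quenched at 48 h total growth, and CBGA and FCBGA were measured by HPLC-MS with internal standard; values are replicate means ± SD.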
molecule,measurement,setting,value
"GPS1.1-F11-MPT4: fusion of GPS1.1 and MPT4 via F11 linker, SEQ ID NO: 16 (protein, GPS1.1-F11-MPT4, geranyl diphosphate synthase, membrane-bound prenyltransferase fusion protein) MSKAKFESVFPRISEELVQLLRDEGLPQDAVQWFSDSLQYNCVGGKLNRGLSVVDTYQLLTGKKELDDEEYYRLALLGWLIELLQAFWLVSDDIMDESKTRRGQPCWYLKPKVGMIAIWDAFMLESGIYILLKKHFRQEKYYIDLVELFHDISFKTELGQLVDLLTAPEDEVDLNRFSLDKHSFIVRYKTAYYSFYLPVVLAMYVAGITNPKDLQQAMDVLIPLGEYFQVQDDYLDNFGDPEFIGKIGTDIQDNKCSWLVNKALQKATPEQRQILEDNYGVKDKSKELVIKKLYDDMKIEQDYLDYEEEVVGDIKKKIEQVDESRGFKKEVLNAFLAKIYKRQKGGAEAAAKEAAAKAGGSGGGSGGGGSGGSGGGGSGGGGSMSDNSIATKILNFGHTCWKLQRPYVVKGMISIACGLFGRELFNNRHLFSWGLMWKAFFALVPILSFNFFAAIMNQIYDVDIDRINKPDLPLVSGEMSIETAWILSIIVALTGLIVTIKLKSAPLFVFIYIFGIFAGFAYSVPPIRWKQYPFTNFLITISSHVGLAFTSYSATTSALGLPFVWRPAFSFIIAFMTVMGMTIAFAKDISDIEGDAKYGVSTVATKLGARNMTFVVSGVLLLNYLVSISIGIIWPQVFKSNIMILSHAILAFCLIFQTRELALANYASAPSRQFFEFIWLLYYAEYFVYVFI",CBGA,[1],55.9 ± 26.4 µM
same,CBGA,"[2]; 2% glucose, strain sCL-SE-0128",200 ± 3 µM
same,FCBGA,"[2]; 2% glucose, strain sCL-SE-0128",24 ± 1 µM
same,CBGA/FCBGA,[2]; product ratio,8.2
